For one assay, the target named is T1, Cyclin B1 (human, UniProt P14635 1-433).
T1 construct: Endogenous cellular protein
The assay is described as follows: GST pull-down from RKO cell lysate, anti-cyclin B1 immunoblot. Background: Immunoblotting shows a protein as a band on a membrane.

For the next assay, the target named is Cdk2 (human, UniProt P24941 1-298). The assay is described as follows: GST pull-down from RKO cell lysate, anti-Cdk2 immunoblot.
In another assay the target is T2, Cdc2 (human, UniProt P06493 1-297).
T2 construct: Endogenous cellular protein; also called cellular Cdc2; Cdc2 polypeptide
T2 sequence (P06493 whole entry): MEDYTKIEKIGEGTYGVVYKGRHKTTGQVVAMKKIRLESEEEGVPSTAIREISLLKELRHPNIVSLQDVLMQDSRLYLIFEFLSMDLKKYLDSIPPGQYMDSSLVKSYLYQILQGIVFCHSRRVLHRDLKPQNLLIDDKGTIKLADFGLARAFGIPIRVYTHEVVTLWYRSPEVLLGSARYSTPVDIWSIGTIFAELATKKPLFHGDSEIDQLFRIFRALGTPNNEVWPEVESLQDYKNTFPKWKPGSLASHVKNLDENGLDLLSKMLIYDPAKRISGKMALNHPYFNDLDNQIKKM
The assay is described as follows: co-immunoprecipitation with anti-Cdc2 from transfected HCT116 cells, anti-HA Western blot. On the procedure: (§1) The immunoprecipitates were then analyzed by Western blot with anti-HA antibody.

Another assay deals with T3, PCNA (human, UniProt P12004 1-261).
T3 construct: Endogenous cellular protein
T3 sequence (P12004 whole entry): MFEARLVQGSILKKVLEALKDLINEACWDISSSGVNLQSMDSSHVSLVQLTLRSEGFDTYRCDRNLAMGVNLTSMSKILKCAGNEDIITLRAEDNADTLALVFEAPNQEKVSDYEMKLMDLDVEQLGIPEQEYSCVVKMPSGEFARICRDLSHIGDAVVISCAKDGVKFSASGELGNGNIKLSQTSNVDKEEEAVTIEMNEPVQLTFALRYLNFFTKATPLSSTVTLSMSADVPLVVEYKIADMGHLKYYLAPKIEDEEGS
The assay is described as follows: co-immunoprecipitation with anti-PCNA from transfected HCT116 cells, anti-HA Western blot. On the procedure:
as §1

In the next assay the target is T4, p21^Cip1/Wafl (human, UniProt P38936 1-164, limits assumed).
T4 construct: Both are written as one molecule; also called p21^wafl
T4 sequence (P38936 whole entry): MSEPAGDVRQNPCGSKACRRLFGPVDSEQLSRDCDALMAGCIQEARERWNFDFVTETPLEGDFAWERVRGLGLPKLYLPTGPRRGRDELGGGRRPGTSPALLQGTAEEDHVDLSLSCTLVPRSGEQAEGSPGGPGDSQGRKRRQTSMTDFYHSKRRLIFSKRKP
The assay is described as follows: co-immunoprecipitation with anti-p21 from transfected HCT116 cells, anti-HA Western blot. Here is the method:
as §1

T1 sequence (P14635 whole entry): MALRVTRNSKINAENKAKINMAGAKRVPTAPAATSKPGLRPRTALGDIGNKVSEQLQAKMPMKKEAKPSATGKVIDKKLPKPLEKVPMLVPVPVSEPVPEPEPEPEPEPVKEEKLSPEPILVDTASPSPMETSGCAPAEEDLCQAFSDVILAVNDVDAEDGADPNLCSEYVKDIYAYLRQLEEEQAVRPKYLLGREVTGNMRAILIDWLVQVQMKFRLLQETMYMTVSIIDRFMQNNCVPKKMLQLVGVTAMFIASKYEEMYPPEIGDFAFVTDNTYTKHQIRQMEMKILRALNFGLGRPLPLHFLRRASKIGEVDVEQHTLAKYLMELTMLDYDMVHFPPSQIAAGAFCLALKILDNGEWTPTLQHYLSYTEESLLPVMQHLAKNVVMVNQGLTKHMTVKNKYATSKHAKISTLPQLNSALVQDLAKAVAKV

B1: glutathione-S-transferase (GST)/GADD45 fusion protein (other)
chain: TLEEFSAGEQKTERMDKVGDALEEVLSKALSQRTITVGVYEAAKLLNVDPDNVVLCLLAADEDDDRDVALQIHFTLIQAFCCENDINILRVSNPGRLAELLLLETDAGPAASEGAEQPPDLHCVLVTNPHSSQWKDPALSQLICFCRESRYMDQWVPVINLPER
notes: GADD45 insert was amplified from pHul45B2 and cloned XhoI/NotI into pGEX4T; also called GST-tagged GADD45; not shown: Glutathione-S-transferase encoded by the pGEX4T vector (Pharmacia)
As for B1, the binding result in the assay with Cyclin B1 and with Cdk2 was “no binding (tested: 100 ng)” each time.

B2: GADD45 deletion mutant del50-76 (HA-tagged) (other, not shown: small tags and cut ends)
chain: MTLEEFSAGEQKTERMDKVGDALEEVLSKALSQRTITVGVYEAAKLLNVLIQAFCCENDINILRVSNPGRLAELLLLETDAGPAASEGAEQPPDLHCVLVTNPHSSQWKDPALSQLICFCRESRYMDQWVPVINLPER
notes: The junction is not described
For B2, the binding result with Cdc2, with PCNA and with p21^Cip1/Wafl was “no binding” in each case.

(Values after patent US7005419 (US Dept. of Health and Human Services, dated 2006).)
